According to article PMC4784309, “Substrate specificity and function of acetylpolyamine amidohydrolases from Pseudomonas aeruginosa” (BMC Biochemistry, 2016):

Key:
[1] = test system: CC(=O)NCCCC[C@H](NC(=O)OC(C)(C)C)C(=O)Nc1ccc2c(C)cc(=O)oc2c1; experiment: purified protein; conditions: pH 8, 30 °C, 20 mM Tris-HCl, 50 mM NaCl
[2] = test system: Cc1cc(=O)oc2cc(NC(=O)[C@H](CCCCNC(=O)C(F)(F)F)NC(=O)OC(C)(C)C)ccc12; experiment: purified protein; conditions: pH 8, 30 °C, 20 mM Tris-HCl, 50 mM NaCl
[3] = substrate: Cc1cc(=O)oc2cc(NC(=O)[C@H](CCCCNC(=O)C(F)(F)F)NC(=O)OC(C)(C)C)ccc12; experiment: purified protein; conditions: pH 8, 30 °C, 20 mM Tris-HCl, 50 mM NaCl; remark: listed apart in the source
[4] = substrate: CC(=O)NCCCCN; experiment: diamine oxidase coupled colorimetric assay; type: biochemical, Pseudomonas aeruginosa; conditions: pH 7.4, 21 °C, 100 mM HEPES
From the text: (§1) diamine oxidase coupled colorimetric assay on PA0321

[5] = substrate: CC(=O)NCCCCCN; experiment: diamine oxidase coupled colorimetric assay; type: biochemical, Pseudomonas aeruginosa; conditions: pH 7.4, 21 °C, 100 mM HEPES
From the text: as §1

[6] = substrate: CC(=O)NCCCCN; experiment: diamine oxidase coupled colorimetric assay; type: biochemical, Pseudomonas aeruginosa; conditions: pH 7.4, 21 °C, 100 mM HEPES; remark: listed apart in the source
From the text: (§2) diamine oxidase coupled colorimetric assay on PA1409

[7] = substrate: CC(=O)NCCCCCN; experiment: diamine oxidase coupled colorimetric assay; type: biochemical, Pseudomonas aeruginosa; conditions: pH 7.4, 21 °C, 100 mM HEPES; remark: listed apart in the source
From the text: as §2

Molecule	Km [1]	Km [3]	also measured
HDAH (Alcaligenaceae bacterium FB188)	26 ± 4 µM		Vmax [1]: 0.0258 µmol/min/mg; Km [2]: 7.2 ± 1.1 µM; Vmax [2]: 0.0138 µmol/min/mg
PA0321 (Pseudomonas aeruginosa PAO1)	22 ± 10 µM		
PA1409 (Pseudomonas aeruginosa PAO1)	223 ± 12 µM		
PA3774 (Pseudomonas aeruginosa PAO1)	95 ± 7 µM		
PA3774 (Pseudomonas aeruginosa PAO1) (protein) MTRRTAFFFDELCLWHAAGPHALTLPVGGWVQPPAAAGHAESPETKRRLKSLLDVSGLTARLQLRSAPPASDEDLLRVHPAHYLERFKALSDAGGGSLGQDAPIGPGSYEIARLSAGLAIAALDAVLAGEADNAYSLSRPPGHHCLPDQAMGFCFFANIAVAIEAAKARHGVERVAVLDWDVHHGNGTQAIYYRRDDVLSISLHQDGCFPPGYSGAEDIGEDRGRGFNLNVPLLPGGGHDAYMQAMQRIVLPALERFRPQLIVVASGFDANAVDPLARMQLHSDSFRAMTAMVRDAAERHAGGRLVVVHEGGYSEAYVPFCGLAVIEELSGVRSAVRDPLRDFIELQQPNAAFRDFQRQRLEELAAQFGLCPAQPLQAAR		21 ± 2 µM	
PA0321 (Pseudomonas aeruginosa PAO1) (protein, recombinant, E. coli expressed, produced as described before [30]) MLTIYSDDHRLHHGRHELIGGQFTPCFEKPSRADMVLDRVKAVGLGEVRAPRDFGLEPIRRVHSEGFVRFLQNAWQDWLATGRSHDMLPIAWPTRRLRQTEPDNIDGRLGYYSFDAGAPITAGTWQAITSSANVALSGQSELANGARSVFSLCRPPGHHAAADYMGGYCFFNNAAIAAQAFLDRGAGRVAILDVDYHHGNGTQDIFYDRADVLFTSIHGDPRFEYPYFLGYADEKGNGVGTGYNFNYPLAAGSDWATWSQALQAAIRQIQAYAADALIVSLGVDTFKEDPISQFRLDSPDYLRMGEAIGKLGLATLFVMEGGYAVEEIGINAVNVLQGFEGVHR		11 ± 1 µM	Km [4]: 411 ± 34 µM; Km [5]: 284 ± 39 µM
PA1409 (Pseudomonas aeruginosa PAO1) (protein, recombinant, E. coli expressed, produced as described before [30]) MLSVYSDDHRLHFGQSELVDGKLQPCFEMPSRADTVLARVKSQNLGEVIAPKDFGREPLLRLHDAAYLDFLQGAWARWTAEGHSGDLVSTTFPGRRLRRDGPIPTALMGELGYYSFDTEAPITAGTWQAIYSSAQVALTAQEHMRQGARSAFALCRPPGHHAGGDFMGGYCFLNNAAIATQAFLDQGARRVAILDVDYHHGNGTQDIFYRRDDVLFASIHGDPRVEYPYFLGYADERGEGAGEGCNHNYPLAHGSGWDLWSAALDDACVRIAGYAPDALVISLGVDTYKEDPISQFRLDSPDYLRMGERIARLGLPTLFIMEGGYAVEAIGINAVNVLQGYEGAAR		84 ± 15 µM	Km [6]: 503 ± 60 µM; Km [7]: 465 ± 53 µM
